Assay results reported in publication PMC4238996 (PLoS Neglected Tropical Diseases, 2014).

B1: unnamed (parent)
chain 1: MQQPTEHTTPMDSLAPPALVIKTPHQAFTAHAAQGPVVIGRDAPAQVRIPDERISRAHVRVTYTSTGWVAVDMSSNGTFVNGVQQATIPITDGLTIHLGHPLEGIAISFSYTIAPPLAVDDATEHIEDTSDPKMVRVGAEIAARREELGLPKRELDRRGVVGQATMTDIEKGRRFPRPFTRDKIEAVLGWPRGHIMWLYEQDIQPDEERTHVLTATTPVPEITGATKMALKGFTAAADSLPPEDDPAFTDRVGALLADLRELESVAASATHSAHGTSAAALVLSDVRKLYKALMLRAAGAPGATLGQRFYAARYRAELTTQDAAAAAGLPVAIIEAAEADAPLDPAATAAVQALLTSLLSQR
chain 2: MALPLGTVVAGYVIEGVLGSGGMGTVYLARHPTLPRSDALKILSAELSQDEQFRVRFIREADLAATLSHPNIVTVFNRGETDDGQLWIAMQYVEGTTASDLHATVLTPARVAAIITDVGAALDYAHSRRVLHRDIKPSNFLVSADHERVLLADFGIARAFDDTTLTAIGSLVGTASYAAPEAIQGGSVDQRADVYSLGCALFRLLTGRAPYEDLRGPAMLMAHVLQPIPRPSHIVVGLPPAIDDVIAVAMAKDPAARFPTAGALAGAARAALSGQPLPQAPPGGPKTRIWAAPPLSYPTTRPPGISGGAISPAGFAGAAHPGLAGAASSSDERGGPRAPRRRKR

Variants of: B1
Test: sandwich ELISA
Details: with partner chain of the complex shown; His6-PknQ adsorbed on a 96-well plate; equimolar amounts of GST-tagged substrates; parent: 2; read off a plot

Variant | response [O.D. 490 nm]
chain 1 MQQPTEHTTPMDSLAPPALVIKTPHQAFTAHAAQGPVVIGADAPAQVRIPDERISRAHVRVTYTSTGWVAVDMSSNGTFVNGVQQATIPITDGLTIHLGHPLEGIAISFSYTIAPPLAVDDATEHIEDTSDPKMVRVGAEIAARREELGLPKRELDRRGVVGQATMTDIEKGRRFPRPFTRDKIEAVLGWPRGHIMWLYEQDIQPDEERTHVLTATTPVPEITGATKMALKGFTAAADSLPPEDDPAFTDRVGALLADLRELESVAASATHSAHGTSAAALVLSDVRKLYKALMLRAAGAPGATLGQRFYAARYRAELTTQDAAAAAGLPVAIIEAAEADAPLDPAATAAVQALLTSLLSQR [chain 1 R41A] | 0.95
chain 1 MQQPTEHTTPMDSLAPPALVIKTPHQAFTAHAAQGPVVIGRDAPAQVRIPDERIARAHVRVTYTSTGWVAVDMSSNGTFVNGVQQATIPITDGLTIHLGHPLEGIAISFSYTIAPPLAVDDATEHIEDTSDPKMVRVGAEIAARREELGLPKRELDRRGVVGQATMTDIEKGRRFPRPFTRDKIEAVLGWPRGHIMWLYEQDIQPDEERTHVLTATTPVPEITGATKMALKGFTAAADSLPPEDDPAFTDRVGALLADLRELESVAASATHSAHGTSAAALVLSDVRKLYKALMLRAAGAPGATLGQRFYAARYRAELTTQDAAAAAGLPVAIIEAAEADAPLDPAATAAVQALLTSLLSQR [chain 1 S55A] | 0.38

Variants of: B1
Test: ELISA
Details: with partner chain of the complex shown; read at the highest MupFHA concentration point, x about 1160 µM; parent: 1.6; read off a plot

Variant | response [O.D. 490 nm]
chain 2 MALPLGTVVAGYVIEGVLGSGGMGTVYLARHPTLPRSDALKILSAELSQDEQFRVRFIREADLAATLSHPNIVTVFNRGETDDGQLWIAMQYVEGTTASDLHATVLTPARVAAIITDVGAALDYAHSRRVLHRDIKPSNFLVSADHERVLLADFGIARAFDDTTLAAIGSLVGTASYAAPEAIQGGSVDQRADVYSLGCALFRLLTGRAPYEDLRGPAMLMAHVLQPIPRPSHIVVGLPPAIDDVIAVAMAKDPAARFPTAGALAGAARAALSGQPLPQAPPGGPKTRIWAAPPLSYPTTRPPGISGGAISPAGFAGAAHPGLAGAASSSDERGGPRAPRRRKR [chain 2 T166A] | 1.5
chain 2 MALPLGTVVAGYVIEGVLGSGGMGTVYLARHPTLPRSDALMILSAELSQDEQFRVRFIREADLAATLSHPNIVTVFNRGETDDGQLWIAMQYVEGTTASDLHATVLTPARVAAIITDVGAALDYAHSRRVLHRDIKPSNFLVSADHERVLLADFGIARAFDDTTLTAIGSLVGTASYAAPEAIQGGSVDQRADVYSLGCALFRLLTGRAPYEDLRGPAMLMAHVLQPIPRPSHIVVGLPPAIDDVIAVAMAKDPAARFPTAGALAGAARAALSGQPLPQAPPGGPKTRIWAAPPLSYPTTRPPGISGGAISPAGFAGAAHPGLAGAASSSDERGGPRAPRRRKR [chain 2 K41M] | 0.26
chain 2 MALPLGTVVAGYVIEGVLGSGGMGTVYLARHPTLPRSDALKILSAELSQDEQFRVRFIREADLAATLSHPNIVTVFNRGETDDGQLWIAMQYVEGTTASDLHATVLTPARVAAIITDVGAALDYAHSRRVLHRDIKPSNFLVSADHERVLLADFGIARAFDDTTLTAIGALVGTASYAAPEAIQGGSVDQRADVYSLGCALFRLLTGRAPYEDLRGPAMLMAHVLQPIPRPSHIVVGLPPAIDDVIAVAMAKDPAARFPTAGALAGAARAALSGQPLPQAPPGGPKTRIWAAPPLSYPTTRPPGISGGAISPAGFAGAAHPGLAGAASSSDERGGPRAPRRRKR [chain 2 S170A] | 0.21

Same assay, conditions: with partner chain of the complex shown; read at the highest MupFHA concentration point, x about 2320 µM; parent: 1; read off a plot

Variant | response [O.D. 490 nm]
chain 2 MALPLGTVVAGYVIEGVLGSGGMGTVYLARHPTLPRSDALKILSAELSQDEQFRVRFIREADLAATLSHPNIVTVFNRGETDDGQLWIAMQYVEGTTASDLHATVLTPARVAAIITDVGAALDYAHSRRVLHRDIKPSNFLVSADHERVLLADFGIARAFDDTTLTAIGSLVGTASYAAPEAIQGGSVDQRADVYSLGCALFRLLTGRAPYEDLRGPAMLMAHVLQPIPRPSHIVVGLPPAIDDVIAVAMAKDPAARFPAAGALAGAARAALSGQPLPQAPPGGPKTRIWAAPPLSYPTTRPPGISGGAISPAGFAGAAHPGLAGAASSSDERGGPRAPRRRKR [chain 2 T260A] | 1
chain 2 MALPLGTVVAGYVIEGVLGSGGMGTVYLARHPTLPRSDALKILSAELSQDEQFRVRFIREADLAATLSHPNIVTVFNRGETDDGQLWIAMQYVEGTTASDLHATVLTPARVAAIITDVGAALDYAHSRRVLHRDIKPSNFLVSADHERVLLADFGIARAFDDTTLTAIGSLVGAASYAAPEAIQGGSVDQRADVYSLGCALFRLLTGRAPYEDLRGPAMLMAHVLQPIPRPSHIVVGLPPAIDDVIAVAMAKDPAARFPTAGALAGAARAALSGQPLPQAPPGGPKTRIWAAPPLSYPTTRPPGISGGAISPAGFAGAAHPGLAGAASSSDERGGPRAPRRRKR [chain 2 T174A] | 0.58
chain 2 MALPLGTVVAGYVIEGVLGSGGMGTVYLARHPTLPRSDALKILSAELSQDEQFRVRFIREADLAATLSHPNIVTVFNRGETDDGQLWIAMQYVEGTTASDLHATVLTPARVAAIITDVGAALDYAHSRRVLHRDIKPSNFLVSADHERVLLADFGIARAFDDTTLTAIGALVGTASYAAPEAIQGGSVDQRADVYSLGCALFRLLTGRAPYEDLRGPAMLMAHVLQPIPRPSHIVVGLPPAIDDVIAVAMAKDPAARFPTAGALAGAARAALSGQPLPQAPPGGPKTRIWAAPPLSYPTTRPPGISGGAISPAGFAGAAHPGLAGAASSSDERGGPRAPRRRKR [chain 2 S170A] | 0.43
